In patent US20190367608A1 (ACTICOR BIOTECH, published 2019):
Substitutions are numbered along the chain they refer to.

T1: double mutant GPVI-Fc (S125P, S126Q, G128R, Q133K, T136S, T171D, A172L, H174V) (human, UniProt Q9HCN6 21-269)
T1 construct: also called GPVI double mutant; not shown: human IgG1 Fc domain
T1 chain: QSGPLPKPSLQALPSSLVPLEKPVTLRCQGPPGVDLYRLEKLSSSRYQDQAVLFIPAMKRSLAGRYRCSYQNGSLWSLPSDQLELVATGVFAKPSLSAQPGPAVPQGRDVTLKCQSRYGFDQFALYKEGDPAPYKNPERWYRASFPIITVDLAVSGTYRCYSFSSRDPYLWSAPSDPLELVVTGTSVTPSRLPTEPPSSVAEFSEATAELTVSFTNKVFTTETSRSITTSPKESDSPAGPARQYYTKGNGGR

B1: ACT017 antibody (Fab, V domains shown)
VH: QVQLVQSGAEVKKPGASVKVSCKASGYTFTSYNMHWVRQAPGQGLEWMGGIYPGNGDTSYNQKFQGRVTMTRDTSTSTVYMELSSLRSEDTAVYYCARGTVVGDWYFDVWGQGTLVTVSS
VL: DIQMTQSPSSLSASVGDRVTITCRSSQSLENSNGNTYLNWYQQKPGKAPKLLIYRVSNRFSGVPSRFSGSGSGTDFTFTISSLQPEDIATYYCLQLTHVPWTFGQGTKVEITR
notes: Humanized anti-human GPVI; also called the Fab of the invention
B2: wild-type soluble GPVI-Fc (Fc fusion)
chain: T1 chain with P105S, Q106S, R108G, K113Q, S116T, D151T, L152A, V154H
notes: The gene encodes the ectodomain from the first methionine to asparagine 269; also called wild-type GPVI-Fc; not shown: human IgG1 Fc domain

How the values were obtained:
[1] = biological target: T1, double mutant GPVI-Fc (S125P, S126Q, …); experiment: ELISA: double mutant GPVI-Fc coated at 20 µg/mL, increasing ACT017, peroxidase-coupled anti-human IgG, absorbance at 450 nm
Description: (§1) Microtitration plates were coated with GPVI-Fc in PBS (20 μg/mL, 100 μL per well) overnight at 4° C. Nonspecific binding sites were saturated with 200 μL of 1% BSA in PBS for 30 min. The plates were then incubated with increasing concentrations of ACT017 preparations (100 μL in PBS containing 0.1% BSA and 0.1% Tween 20) for 30 min. After 3 washing rounds plates were incubated with a peroxidase-coupled secondary human anti-IgG for 30 min. Finally, 100 μL of the substrate solution were added to each well for 4 min, and the colorimetric reaction stopped by 25 μL NaOH 3 M.

[2] = biological target: B2; experiment: ELISA: GPVI-Fc coated at 20 µg/mL, increasing ACT017, peroxidase-coupled anti-human IgG, absorbance at 450 nm
Description: as §1

Collagen = biological target: T2, Collagen; experiment: ELISA: collagen coated at 20 µg/mL, increasing GPVI-Fc, peroxidase-coupled anti-human Fc, absorbance at 450 nm
T2 construct: Horm collagen (Nycomed) is named only for the platelet aggregation assays; The collagen used in the ELISA is not specified
Description: Microtitration plates were coated with Collagen in PBS (20 μg/mL, 100 μL per well) overnight at 4° C.
Nonspecific binding sites were saturated with 200 μL of 1% BSA in PBS for 30 min. The plates were then incubated with increasing concentrations of wild-type or double mutant GPVI-Fc preparations (100 μL in PBS containing 0.1% BSA and 0.1% Tween 20) for 30 min. After 3 washing rounds plates were incubated with a peroxidase-coupled secondary human anti-Fc(ab) for 30 min. Finally, 100 μL of the substrate solution were added to each well for 4 min, and the colorimetric reaction stopped by 25 μL NaOH 3 M.

| Binder | binding result [1] | EC50 (read off the curve) [2] [µg/mL] | EC50 (read off the curve) (Collagen) [µg/mL] |
| --- | --- | --- | --- |
| B1 | no binding (tested: about 830 ng/ml) | ~0.03 |  |
| B2 |  |  | ~0.6 |
